System: MS2 coat protein
Experiment: apparent KD of MS2 coat protein; designed switch direction (-1 OFF switch, 1 ON switch): -1; higher = weaker reporter binding
Procedure, shortened: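 On Illumina chips, designed RNA switches with common flanks were made by stalled E. coli RNA polymerase. Titrations with SNAP-549-labelled MS2 coat protein, doubling from 0.7 or 1.5 nM to 3 µM, were done with no input, with 200 uM small-molecule ligand, or with an oligonucleotide input. Apparent KD is the median per design over clusters, from curve fits of normalised cluster fluorescence.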

[1] = input ligand: microRNA oligo, concentration not stated
[2] = Eterna round: R95, input ligand: microRNA oligo, concentration not stated
[3] = Eterna round: R95, input ligand: FMN 200 uM
[4] = Eterna round: R95, input ligand: none

Row | Sequence | apparent KD of MS2 coat protein (input ligand: FMN 200 uM) | apparent KD of MS2 coat protein (input ligand: none) | apparent KD of MS2 coat protein [1] | apparent KD of MS2 coat protein [2] | apparent KD of MS2 coat protein [3] | apparent KD of MS2 coat protein [4]
1 | AUGUUACAUGAGGAUCACCCAUGUGAGGAUAUGAGUCAGUCACGGUGACGUGGCUGACUCAGAAGGCACUAUGG [JL-ex1-4.39 salish99 mod] (Eterna round: R97, puzzle: Exclusion 1) | 146 nM | 279 nM | – | – | – | –
2 | ACAUGUCAUCGAGGAUAUUGCACACAUGAGGAUCACCCAUGUAUUCGGUUGCUCUCGCGUGAGUUCGAGAAGGCGAUGUACAUU [Ex NG2 #84] (Eterna round: R96, puzzle: Exclusion NG 2) | 276 nM | 48.9 nM | 36.6 nM | – | – | –
3 | UUUUAACAUGAGGAUCACCCAUGUGAGGAUAUCGAAAUUUAUAUUAAUAUUAAUAAUACGAGAAGGCACAUUUU [JMF 22] (puzzle: Exclusion 1) | – | – | – | 71 nM | – | –
4 | GGAUAUAAUGUGAGGAUAUCUGCGAUACCUAGUCGAGAGAAGGCACAUGAGGAUCACCCAUGUGAGGACCUCGU [Eternabot (L1) Solution 98] (Eterna round: R97, puzzle: Brourd's mod of Exclusion 4) | 29.6 nM | 19.4 nM | – | – | – | –
5 | ACAUGUUAUGUAGGAUAUUAGACACAUGAGGAUCACCCAUGUAACCGGAGGCUUUACUAUGAGUUUGAGAAGGGUAUGAACAUG [Ex NG2 #66] (Eterna round: R96, puzzle: Exclusion NG 2) | 78.1 nM | 92.1 nM | 45.4 nM | – | – | –
6 | GGCGCCUGAGGAUAUCAGUCUGGAUCAGAAAAGAUCCUGACUGAGAAGGCACAUGAGGAUCACCCAUGUUCGCC [Mat - Exclusion 4 - Eli Mod - D51] (Eterna round: R97, puzzle: Exclusion 4) | 14.5 nM | 14.7 nM | – | – | – | –
7 | AAAAAGCGAGGAUAUGCAUAAGGACCCGGGAGGGAAAUCAAACAUGAGGAUCACCCAUGUAGAAGGCGCAAAAA [Exclss2-III] (puzzle: Exclusion 2) | – | – | – | 18.2 nM | – | –
8 | AAGAACGUACAAGGAUAUCUCCACCACAACGGCAGAGAAGGUGUACAUGAGGAUCACCCAUGUGACCGAAGGCCCUUAUGGGCC [Xeerergeza] (Eterna round: R96, puzzle: Exclusion NG 1) | 79.8 nM | 29.6 nM | 20.6 nM | – | – | –
9 | CGUCGAAAUGUAGGAUAUCUGCACGUGUAGUGCAGAGAAGGACAUGAGGAUCACCCAUGUAGAUCACGACGAAUUAAUUUAAUU [ENG1/5-C3] (Eterna round: R96, puzzle: Exclusion NG 1) | 468 nM | 56.9 nM | 50.4 nM | – | – | –
10 | GUGUACGGAGGAUAUGCUGGAAUCUAGCGAAGCUAGGUUCCACAUGAGGAUCACCCAUGUAGAAGGCUGUACAC [Dot plot directed A v5] (puzzle: Exclusion 2) | – | – | – | 21.1 nM | – | –
11 | GAGAAGGUAGGAUAUACGAAGAAAGAGGGUAGGAAGAAUACACAUGAGGAUCACCCAUGUAGAAGGACCAAGAG [Mat - Exclusion 2 - Mod of my Tesla design - D47] (puzzle: Exclusion 2) | – | – | – | 17.8 nM | 32.9 nM | 23 nM
12 | GAUUAUGCGAGCUUUAGGGACAUGAGGAUCACCCAUGUUCGUCUUAUUAGUCUAAAUGCACUGACAUACCUAAAUCU [JMF 73] (puzzle: Sensor v3, turn-off variant 1) | – | – | – | 15.3 nM | 12.9 nM | 13.9 nM
13 | GGCGCACAUGAGGAUCACCCAUGUGAGGAUAUUAGGCGAUCGUCGAAAGACGAUAGCCUGAGAAGGCACAUGCC [Eli x1 4.19] (Eterna round: R97, puzzle: Exclusion 1) | 154 nM | 33.1 nM | – | – | – | –
14 | AAACAGCAAGGAUAUACGGGCUGUGCUUUUCAUUUCUUACAACAUGAGGAUCACCCAUGUAGAAGGUGCAACAA [Ex2 #5] (Eterna round: R97, puzzle: Exclusion 2) | 80.4 nM | 24.5 nM | – | – | – | –
15 | GUAAAAUAAGCUUAUUUACACAUGAGGAUCACCCAUGUAUUGGACGGACUCCUGACCUCAAUUAUAUGCUCGUAUCG [Eternabot (L1) Solution 41] (Eterna round: R97, puzzle: Sensor, turn-off variant 1) | 77.6 nM | 79.5 nM | – | – | – | –
16 | GCCCUCGCUGAGGAUAUUAUCUGGCUCGACCGAUAAGAAGGCAGUACAUGAGGAUCACCCAUGUGGUUCGUUCG [Polaris46] (Eterna round: R97, puzzle: Exclusion 6) | 97.9 nM | 41 nM | – | – | – | –
